Laboratory results taken from patent US20230399395A1.

Columns and labels:
IL5 (human) [1] = target: IL5 (human) (UniProt P05113); test: cell-based or functional assay
IL5 (human) [2] = target: IL5 (human) (UniProt P05113); test: Flow cytometry, blocking of IL5-biotin binding to HEK293F cells expressing IL5R
IL5 (human) [3] = target: IL5 (human) (UniProt P05113); test: flow cytometry blocking IL5/IL5R
IL5 (human) [4] = target: IL5 (human) (UniProt P05113); test: ELISA
IL5 (human) [5] = target: IL5 (human) (UniProt P05113); test: flow cytometry blocking IL5/IL5R; remark: listed apart in the source

Substance | IC50 of inhibition of the proliferation of TF-1 cells induced by IL5 (CCK8, OD450) (IL5 (human) [1]) [nM] | IC50 (IL5 (human) [2]) [µg/mL] | IC50 (IL5 (human) [3]) [µg/mL] | EC50 (IL5 (human) [4]) [µg/mL] | IC50 (IL5 (human) [5]) [µg/mL]
Nucala (antibody) | 0.178 | 2.04 |  |  | 
Control Ab Nucala |  |  | 2.36 | 0.0563 | 2.96
